Experimental findings from patent publication US20180021429A1, “ANTICANCER AGENTS OR ANTIMETASTATIC AGENTS USING FSTL1 AND COMBINATION DRUG THEREOF” (PHARMA FOODS INTERNATIONAL CO., LTD., priority 2015, published 2018) are described below.

The test system of test [1] is human peripheral blood cells. Description: Treg induction inhibition using human peripheral blood cells stimulated with FSTL1 (Example 25). As to conditions: FSTL1 5 ng/ml, antibody 5 μg/mL, 3 days; FIG. 113. The format is cell-based. As for the experimental part: (§1) Human peripheral blood cells (1×10^6 cells) were stimulated using FSTL1 (5 ng/ml), supplemented with the antibody (5 μg/mL), and cultured for 3 days. The percentage of a Foxp3^+CTLA4^+ cell fraction (Exp. 1) or a CD4^+Foxp3^+CTLA4^+ cell fraction (Exp. 2) in CD4^+ T cells was analyzed as Treg cells by flow cytometry. The flow cytometry conditions are as follows.
Blood was collected from a healthy person by the addition of a 1/10 amount of 4% sodium citrate, then layered on Ficoll (specific gravity: 1.090), and centrifuged (1500 rpm, 20 min, room temperature), and a cell fraction present in an intermediate layer was used as “PBMCs”. The antibody (5 μg/mL) was added to a system in which these PBMCs (1×10^6 cells) were cultured for 3 days under stimulation with FSTL1 (5 ng/ml) in a 24-well plate. PBMCs recovered from the culture system were incubated at 4° C. for 1 hour using an anti-CD4 antibody (BD Pharmingen/Becton, Dickinson and Company), an anti-CD25 antibody (BD Pharmingen/Becton, Dickinson and Company), and an anti-FoxP3 antibody (eBioscience). Then, the percentage of a Foxp3+CTLA4+ cell fraction (Exp. 1) or a CD4^+Foxp3^+CTLA4^+ cell fraction (Exp. 2) in CD4^+ T cells contained therein was analyzed as Treg cells using a flow cytometer FACScan (Becton, Dickinson and Company). […]

For test [2], the system named is human pancreatic cancer cell line Panc1. Description: Action of anti-FSTL1 antibody under FSTL1 stimulation (Example 26). The format is cell-based. The settings on record: Panc1 stimulated with FSTL1 for 3 days; antibody 5 μg/ml. As for the experimental part:
Next, in order to examine how surrounding tumor cells were changed in a cancer microenvironment by receiving FSTL1 produced by Snail/FSTL1-expressing cells, and how the anti-FSTL1 antibody acts thereon, a human pancreatic cancer cell line Panc1 confirmed to express Snail or FSTL1 only slightly was stimulated with FSTL1 for 3 days. The anti-FSTL1 antibody (#6-55, 5 μg/ml) or a control antibody (aHema, 5 μg/ml) was added to this culture system, and subsequent change in cell function was analyzed in the same way as in the preceding paragraph. […] The paper also reports that FSTL1 enhances invasive capacity.

The test system of a further test is mouse melanoma B16-F10. Description: In vivo, mouse melanoma B16-F10 (Example 22). As for the experimental part:
The drug efficacy of the anti-FSTL1 antibody was evaluated according to Examples 17 to 20 using other cancer-bearing models of C57BL/6 mice of the same strain as in Snail-positive tumor bone metastasis models. The “mouse melanoma B16-F10” is a parent line of the cell line forced to express Snail, which was transplanted in the bone metastasis models used in the preceding tests.
1. Experiment Group (n=5) • 1. Mouse melanoma B16-F10+control IgG (anti-DNP mAb) • 2. Mouse melanoma B16-F10+anti-FSTL1 mAb (#6-55)
• Day 0: transplantation of tumor cells (1×10^6 cells subcutaneously & 1×10^6 cells intravenously) • Day 3: intraperitoneal administration of the antibody (first dose, corresponding to 200 μg/mouse=10 mg/kg) • Day 6: intraperitoneal administration of the antibody (second dose, corresponding to 200 μg/mouse=10 mg/kg) • Day 15 various immunological assays
• Effects on the growth of subcutaneous tumor (calculation of tumor volume by tumor size measurement): measured 6, 10, and 14 days after tumor implantation (FIG. 46A) • Effects on weight loss (FIG. 46B)
• Effects on the growth of subcutaneous tumor (calculation of tumor volume by tumor size measurement): measured 6, 10, and 14 days after tumor implantation (FIG. 78A) • Effects on weight loss (FIG. 78B)

Test [3] has as its system Treg induction caused by FSTL1. Description: Treg induction inhibitory activity using human peripheral blood cells (Example 25). The test is classed as cell-based. As to conditions: human PBMCs; FSTL1 5 ng/ml; antibody 5 μg/mL; 3 days. As for the experimental part:
as §1
Blood was collected from a healthy person by the addition of a 1/10 amount of 4% sodium citrate, then layered on Ficoll (specific gravity: 1.090), and centrifuged (1500 rpm, 20 min, room temperature), and a cell fraction present in an intermediate layer was used as “PBMCs”. The antibody (5 μg/mL) was added to a system in which these PBMCs (1×10^4 cells) were cultured for 3 days under stimulation with FSTL1 (5 ng/ml) in a 24-well plate. PBMCs recovered from the culture system were incubated at 4° C. for 1 hour using an anti-CD4 antibody (BD Pharmingen/Becton, Dickinson and Company), an anti-CD25 antibody (BD Pharmingen/Becton, Dickinson and Company), and an anti-FoxP3 antibody (eBioscience). Then, the percentage of a Foxp3+CTLA4+ cell fraction (Exp. 1) or a CD4+Foxp3+CTLA4+ cell fraction (Exp. 2) in CD4+ T cells contained therein was analyzed as Treg cells using a flow cytometer FACScan (Becton, Dickinson and Company).

B1: #6-55: chicken-mouse chimeric anti-FSTL1 antibody clone; variable regions SEQ ID NO: 783 (light), 785 (heavy) (antibody, V domains shown)
VH: AVTLDESGGGLQTPGGALSLVCKGSGFTFTSVTMQWVRQAPGKGLEWVASVCSGSSTYYAPAVKGRATISRDNGQSTVRLQLSNLRPEDTGTYYCAKIAGRARWSCTSAAYNIDAWGHGTEVIVSS
VL: ASTQPSSVSAIPGETVKITCSGGGNNYGWYQQRSPGSAPVTVIYYNDNRPSNIPSRFSGSTSGSTSTLTITGVQADDEAIYYCGSWDSNTDSGIFGAGTTLTVL
modifications: mouse constant regions
Regarding B1, the “Treg induction caused by FSTL1 (Foxp3+CTLA4+ fraction in CD4+ T cells)” value in test [1] is given as “significantly suppressed”. For the same molecule, in test [2], the cell growth entry is “the cell growth was reduced by the addition of the anti-FSTL1 antibody together with FSTL1” and the “invasive capacity enhanced by FSTL1” value was “the action thereof is canceled”. The weight loss result with mouse melanoma B16-F10 (intraperitoneal 10 mg/kg on days 3 and 6) was “suppressive activity against weight loss was also exhibited”. For the same molecule, the subcutaneous tumor growth entry in the test on mouse melanoma B16-F10 (intraperitoneal 10 mg/kg on days 3 and 6, vs control antibody) is “strongly suppressed”. Further, the “Treg induction by FSTL1 (Foxp3+CTLA4+ / CD4+Foxp3+CTLA4+ cell fraction)” value in test [3] is “significantly suppressed”.
